Test results: the nanobody polyreactivity screen of Harvey et al. (2022)

assay: yeast display, Sf9 membrane polyspecificity reagent, FACS + sequencing; frameworks hold sequencing errors
In short: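 Genes from sorted yeast were amplified by colony PCR, read by MiSeq 2 × 250 sequencing and filtered on CDR length. These cells carried a synthetic nanobody library in Saccharomyces cerevisiae BJ5465 and were sorted by FACS into low and high (top ~1%) gates on anti-HA and streptavidin fluorescence. Polyreactivity is labelled according to the gate of origin.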

Sequence | polyreactivity (PSR sort gate)
QVQLVESGGGLVQAGGSLLLSCAASGRTFQDNAMGWYRQAPGKERELVAAISWRGGSTNYADSVKGRFTISRDNAKNTVYLQMNSLKPEDTAVYYCTRDPRKYGKLDYWGQGTQVTVSS | low polyreactivity
QVQLVESGGGLVQAGGSLLLSCAASGRTFTRYAMGWYRQAPGKERELVASITNGGGTYYADSVKGRFTMSRDNAKNTVYLQMNSLKPEDTAVYYCAKAERVTSHLYYSWGQGTQVTVSS | low polyreactivity
QVQLVESGGGLVQAGGSLLLSCAASGSIFGYYAMGWYRQAPGKERELVAAITRRGGSTYYADSVKGRFTISRDNAKNTVYLQMNSLKPEDTAVYYCNKVTRTEYDYWGQGTQVTVSS | high polyreactivity
QVQLVESGGGLVQAGGSLLLSCAASGSILVTYAMGWYRQAPGKERQLVAAISRGGRTYYADSVKGRFTISRDSAKNTVYLQMKSLNPEDNAVYYCNTLTRLVYDGMGYWGQGTQVIVSS | high polyreactivity
QVQLVESGGGLVQAGGSLLLSCAASGSTFGANAMGWYRQAPGKEREFVAAISRSGVRTYYADSVKGRFTISRDNAKNTVYLQMNSLKPEDTAVYYCAADGYWWTYTRYDYWGQGTQVTVSS | low polyreactivity
QVQLVESGGGLVQAGGSLLLSCAASGSTFPGYAMGWYRQEPGKERELVAAGGSTYYADSVKGRFTISLDNAKNTVYLQMNSLKPEDTAVYYCNARWYLVPIMEYLGQGTQVTVSS | low polyreactivity
QVQLVESGGGLVQAGGSLLLSCAASGSTFSGYAMGWYRQAPRKESDLVASINWSGGSTYADSVKGRFTISRDNAKNTVYLQMNSLKPEDTAVYYCARRWRAYLYGGRDYWGQGTQVTVSS | low polyreactivity
QVQLVESGGGLVQAGGSLLLSCAASGSTFYKYAMGWYRQAPGKERELVARNSRGGGSTYYADSVKGRFTISRDNAKNTVYLQMNSLKPEDTAVYYCAAGVRGQNEGYYWGQGTQVTVSS | high polyreactivity
QVQLVESGGGLVQAGGSLLLSCAASGYTFGTYDMGWYRQAPGKERELVAAISIGGSTNYADSVKGRFTISRDNAKNTVYLQMNSLKPEDTAVYYCAAEVNVGTLLLSVIVEDGDYWGQGTQVTVSS | low polyreactivity
QVQLVESGGGLVQAGGSLLLSCAASRSTFDTNAMGWYSQAPGKERELVAAIRWSTGNTYYADSVKGRFTISRDNAKKTDYLQKNSLKPEDTAVYYCAAYTGKHYKEGYWGQVTQVTVSS | low polyreactivity
QVQLVESGGGLVQAGGSLLLSCSASGRNFRANAMGWYRQAHRKERELVAAITSTGDRTYYADSVKGRFTISRDNAKNTVYLQMNSLKQEDTAVYYCAAENNRYGGYRKYDYWGLGTQVTVSS | low polyreactivity
QVQLVESGGGLVQAGGSLLLSCSASGRTFPVNAMGWYRKAHGKEREFVAVISSTGTTYYADSVKGRFTISRDNAKNTVYLQMNSLQPVDTAVYYCARRSNRRAYGNRVGVRRTVDYWGQGTQVTVSS | low polyreactivity
QVQLVESGGGLVQAGGSLLLSSAASGRTFSINAMGWYRQAHGKERELVAAITWSGGSTYYADSVKGRFTISRDNAKNTVYLQMNSLKPEDTAVYYCNAGLGKFPVKGGRRYRLDYSGQGTQVTVSS | low polyreactivity
QVQLVESGGGLVQAGGSLLLSSAASGSIFQPYAMGWYRPAPGKERELVAAISIGDSTNYADSVKGRFTISRDNAKITVYLQMNSLKPEDTAVYYCNTTGEYYDYWGQGTQVTVSS | low polyreactivity
QVQLVESGGGLVQAGGSLPLSCAASGLTFYRYAMGWYREAPGKERELVAAISFSGGSTYYADSVKGRFTISRDIAKYTVYIQMNCLKPEDTAVYYCAASYQGRRYQDRYDYWGQGNQVTVSS | high polyreactivity
QVQLVESGGGLVQAGGSLPLSCAASGNTFYNYAMGWYRQAPGKERELVAAISLSGGSTYYADSVKGRFTISRDNAKNTVYLQMNSLKPEDTAVYYCAADIFYYSSSYGYWGQGTQVTVSS | low polyreactivity

Sequence | polyreactivity (PSR sort gate)
QVQLVESGGGLVQAGGSLPLSCAASGRIFRRNAKGWYRPAPGKEREMVAAIRYGGGTTYAHSVKGRFTISRDNAKNTVYLQMNSLKPEDTAVYYCAVGPRASFGYGYWGQGTQVTVSS | high polyreactivity
QVQLVESGGGLVQAGGSLPLSCAASGSIFGGNDMGWYRQAPGKERELVAAITSSGGSTYYADSVKGRFTITRDNAKITVYCQMNRLKPEVTAVYYCNADYYGPYRDYGYWGQGTQVTVSS | low polyreactivity
QVQLVESGGGLVQAGGSLPLSCAASGSIFYSNAMGWYRQAPGKERELVARISRSGGSTYYADSVKGRFTISRDNAKNTVYLQMNSLKPEDTAVYYCAKTFTRSWGLGGSWGQGTQVTVSS | low polyreactivity
QVQLVESGGGLVQAGGSLPLSCAAYGFTFWYYAMGWYRQAPGKERELVAAISTGGRTNYADSVKGRFTISRDNAKNTVYLQMNSLKPEDTAFYYCAADQSYFYLYRYRFDYWGQGTQVTVSS | high polyreactivity
QVQLVESGGGLVQAGGSLPLSSAASGITFRLYALGWYRQAPGKERELVATITSLGGGTYYADSVKGRFTISRDNAKNTVYLQMHCLIPEDTAVYYCAADVSRPPAGFNYWGQGSQVTVSS | high polyreactivity
QVQLVESGGGLVQAGGSLPLTCAASGSIFAWNDMGWYRQAPGKERELVAAIRESGTGTYADSVKGRFTISRDNAKNNVYLQMKSLKPEDTAVYYGVADEIQFFIYRMEYWGQGTQVTVSS | low polyreactivity
QVQLVESGGGLVQAGGSLRCSWAASGFIFTPYAMGWYRQAPGTEREFVATITWSGGSTNYADSVKGRFTISRDNAKNTVYLPMNSLKPDDTAVYYCNADTWSPNDYWGQGTQVTVSS | low polyreactivity
QVQLVESGGGLVQAGGSLRFICAASGFLFRAYTMGWYRQAPGKERELVAAITSSGGRTYYADSVKGRFSISRDNAKNTVFLQMNSLKPEDTAVYYCATVYAKWKQFDSWGQGTQVNVSS | high polyreactivity
QVQLVESGGGLVQAGGSLRFICAASGRTFDWYAMGWYRPAPGKERELVAGNSWSGGSTYYADSVKGRFTISRDNAKNTVYLQMNSLKPEDTAVYYCAAEYPFEIGYVYYYIDYDYWGQGTQVTVSS | low polyreactivity
QVQLVESGGGLVQAGGSLRFSCAACGSIFEFYALGWSSQAPGKERELVAAITWDDGSTYYADSVKGRFTISRDNATNTVYLQMNSLTPEDTAVYYCAADTYITSDLYVYAYYYWGQGTQVTVSS | low polyreactivity
QVQLVESGGGLVQAGGSLRFSCAASGFIFSAYAMGWYRPAPGKERELVAAITWNGGSTYYADSVKGRFTISRDNAKNTVYLQMNSLKPEDTAVYYCNAVIKQHYIKYSYWGQGTQVTVSS | high polyreactivity
QVQLVESGGGLVQAGGSLRFSCAASGINFYFNAMGWYRQAPGKERELVAVITSGGSTNYADSVKGRFTISRDNAKNTVYLQMNSLKPEDTAVYYCATDKSYSSWSAQYVYWGQGTQVTVSS | low polyreactivity
QVQLVESGGGLVQAGGSLRFSCAASGITIRFYAMGWYRQAPGKERELVAAITRGGSTTYAHSVKGRFTISRDNAKNTVYLQMNSLKPEDTEVSYCNAQYQSGYYTSYPDRFDTWGQGTQVTVSS | low polyreactivity
QVQLVESGGGLVQAGGSLRFSCAASGNTFYQYAMGWYRQAPGKERELVAAIVWSGGTTYYADSVKGRFTISRDNAKNTVYLQMTSLKPEDTAVYYCNADYDRGPYDYDSWGQGTQVTVSS | low polyreactivity
QVQLVESGGGLVQAGGSLRFSCAASGRIFGDYAMGWYRLAPGKERELVAAISWSDGSTYYADSVKGRFTISRDNAKNTVYLQMNSLKPEDTAVYYCAASYWDTEPGYREYDYWGQGTQVTVSS | low polyreactivity
QVQLVESGGGLVQAGGSLRFSCAASGRIFQYNAMGWYRQAPGKERELVASITSGVRTYYADSVKGRFTISRDNAKNTVYLQMNSLKPEDTAVYYCNAYSGGQYDYCGQGTQVTVSS | high polyreactivity
